Tests used:
Experiment in all cases: two-hybrid library CCNG1;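 note: natural log of median RNA to DNA barcode read ratio; higher means stronger binding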
4H1338-bN = target: T1, 4H1338-bN
T1 chain: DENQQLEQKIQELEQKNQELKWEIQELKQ

4H1348-bN = target: T2, 4H1348-bN
T2 chain: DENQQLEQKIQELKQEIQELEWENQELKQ

4H1373-bN = target: T3, 4H1373-bN
T3 chain: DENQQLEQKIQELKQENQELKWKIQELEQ

4H1449-bN = target: T4, 4H1449-bN
T4 chain: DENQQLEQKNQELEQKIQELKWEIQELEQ

4H1544-bN = target: T5, 4H1544-bN
T5 chain: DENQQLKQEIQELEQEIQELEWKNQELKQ

4H1710-bN = target: T6, 4H1710-bN
T6 chain: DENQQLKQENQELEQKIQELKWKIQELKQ

4H1899-bN = target: T7, 4H1899-bN
T7 chain: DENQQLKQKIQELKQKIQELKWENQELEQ

4H1985-bN = target: T8, 4H1985-bN
T8 chain: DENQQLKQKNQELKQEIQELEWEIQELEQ

4H2702-bA = target: T9, 4H2702-bA
T9 chain: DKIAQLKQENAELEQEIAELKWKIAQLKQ

4H3613-bN = target: T10, 4H3613-bN
T10 chain: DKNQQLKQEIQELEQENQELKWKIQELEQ

4H3628-bN = target: T11, 4H3628-bN
T11 chain: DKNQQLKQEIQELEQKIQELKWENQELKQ

4H3817-bN = target: T12, 4H3817-bN
T12 chain: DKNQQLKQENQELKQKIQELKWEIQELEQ

4H3858-bN = target: T13, 4H3858-bN
T13 chain: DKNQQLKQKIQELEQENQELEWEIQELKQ

4H3974-bN = target: T14, 4H3974-bN
T14 chain: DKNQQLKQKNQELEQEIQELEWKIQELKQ

4H570-bN = target: T15, 4H570-bN
T15 chain: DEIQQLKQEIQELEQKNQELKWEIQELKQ

4H850-bN = target: T16, 4H850-bN
T16 chain: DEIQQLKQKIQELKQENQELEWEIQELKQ

interaction score (4H1338-bN): 0.0248
interaction score (4H1348-bN): -1.29
interaction score (4H1373-bN): -1.16
interaction score (4H1449-bN): -0.847
interaction score (4H1544-bN): 0.114
interaction score (4H1710-bN): -0.345
interaction score (4H1899-bN): -2.73
interaction score (4H1985-bN): -0.88
interaction score (4H2702-bA): -2.23
interaction score (4H3613-bN): -0.479
interaction score (4H3628-bN): -0.229
interaction score (4H3817-bN): -0.326
interaction score (4H3858-bN): 1.37
interaction score (4H3974-bN): -0.674
interaction score (4H570-bN): -0.567
interaction score (4H850-bN): 0.8
Binder: DENQQLEQKIQELEQKNQELKWEIQELKQ [4H1338-bN]
